IntAct's records for PubMed 22796944

B1: Cell division control protein 73 (Saccharomyces cerevisiae), Q06697 (parent)
chain: MANSLDRLREHLKNGDKLVLKNNEGQSTDDITKATMVETLSSDGSTQDSFPLNEETEIEIDGSLVQLRIIVHCWMNKDSSAADYLADCQNKQLTNVSFLQRTDLINWLSGNTESSQYLKAPGQKGETSDKVDIENKTLAGELSTVKSTTSASLENDSEVSDPVVVETMKHERILVDHNSALRGAKPINFGYLIKDAELKLVQSIKGSLRGSKLPPGHKGAHGRISKTNGSSGGPRKDPIILIPSAASSILTVANIKQFLLESKYVNPRNLPSVPNGLVNIEKNFERISRPIRFIIVDNTRMFTKPEYWDRVVAIFTTGHTWQFNNYQWNSPQELFQRCKGYYFHFAGDSVPQHVQQWNVEKVELDKNKRFKDVEVVRYFWHSLEKELISRGYR
B2: Cell division control protein 73 (Saccharomyces cerevisiae), Q06697 (parent)
chain: B1 chain
partner: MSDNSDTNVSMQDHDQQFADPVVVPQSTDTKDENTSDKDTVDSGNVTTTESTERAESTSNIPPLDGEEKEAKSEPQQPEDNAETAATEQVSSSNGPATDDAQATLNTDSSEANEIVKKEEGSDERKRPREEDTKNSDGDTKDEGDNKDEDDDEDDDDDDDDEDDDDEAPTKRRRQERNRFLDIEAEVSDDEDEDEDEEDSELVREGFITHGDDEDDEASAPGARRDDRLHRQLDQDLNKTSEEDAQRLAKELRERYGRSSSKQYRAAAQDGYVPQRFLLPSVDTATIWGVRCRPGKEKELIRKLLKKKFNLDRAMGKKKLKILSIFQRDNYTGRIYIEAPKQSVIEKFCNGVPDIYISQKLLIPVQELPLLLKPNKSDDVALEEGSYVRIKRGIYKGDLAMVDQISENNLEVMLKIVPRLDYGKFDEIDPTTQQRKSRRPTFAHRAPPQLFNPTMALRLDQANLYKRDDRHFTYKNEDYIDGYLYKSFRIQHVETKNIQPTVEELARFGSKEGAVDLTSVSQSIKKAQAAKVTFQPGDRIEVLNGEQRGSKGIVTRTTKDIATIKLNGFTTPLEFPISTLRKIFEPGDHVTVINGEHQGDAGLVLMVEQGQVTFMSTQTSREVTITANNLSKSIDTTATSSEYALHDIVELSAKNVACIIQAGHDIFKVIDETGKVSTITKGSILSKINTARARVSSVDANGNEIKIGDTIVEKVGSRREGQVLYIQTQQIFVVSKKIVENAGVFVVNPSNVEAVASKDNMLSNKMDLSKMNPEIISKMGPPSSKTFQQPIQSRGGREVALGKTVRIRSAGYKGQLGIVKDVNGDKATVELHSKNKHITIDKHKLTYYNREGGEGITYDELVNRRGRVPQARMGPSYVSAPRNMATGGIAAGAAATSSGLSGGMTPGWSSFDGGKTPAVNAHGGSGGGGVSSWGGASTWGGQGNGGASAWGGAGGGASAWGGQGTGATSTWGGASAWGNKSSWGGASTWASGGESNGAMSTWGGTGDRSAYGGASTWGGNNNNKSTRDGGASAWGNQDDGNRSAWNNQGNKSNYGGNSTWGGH
B3: Transcription elongation factor SPT5 (Saccharomyces cerevisiae), P27692 (parent)
chain: B2 partner

Variants of: B1
Conditions: with rpb1_yeast RPO21, P04050
Chain of rpb1_yeast RPO21, P04050 (P04050 whole entry): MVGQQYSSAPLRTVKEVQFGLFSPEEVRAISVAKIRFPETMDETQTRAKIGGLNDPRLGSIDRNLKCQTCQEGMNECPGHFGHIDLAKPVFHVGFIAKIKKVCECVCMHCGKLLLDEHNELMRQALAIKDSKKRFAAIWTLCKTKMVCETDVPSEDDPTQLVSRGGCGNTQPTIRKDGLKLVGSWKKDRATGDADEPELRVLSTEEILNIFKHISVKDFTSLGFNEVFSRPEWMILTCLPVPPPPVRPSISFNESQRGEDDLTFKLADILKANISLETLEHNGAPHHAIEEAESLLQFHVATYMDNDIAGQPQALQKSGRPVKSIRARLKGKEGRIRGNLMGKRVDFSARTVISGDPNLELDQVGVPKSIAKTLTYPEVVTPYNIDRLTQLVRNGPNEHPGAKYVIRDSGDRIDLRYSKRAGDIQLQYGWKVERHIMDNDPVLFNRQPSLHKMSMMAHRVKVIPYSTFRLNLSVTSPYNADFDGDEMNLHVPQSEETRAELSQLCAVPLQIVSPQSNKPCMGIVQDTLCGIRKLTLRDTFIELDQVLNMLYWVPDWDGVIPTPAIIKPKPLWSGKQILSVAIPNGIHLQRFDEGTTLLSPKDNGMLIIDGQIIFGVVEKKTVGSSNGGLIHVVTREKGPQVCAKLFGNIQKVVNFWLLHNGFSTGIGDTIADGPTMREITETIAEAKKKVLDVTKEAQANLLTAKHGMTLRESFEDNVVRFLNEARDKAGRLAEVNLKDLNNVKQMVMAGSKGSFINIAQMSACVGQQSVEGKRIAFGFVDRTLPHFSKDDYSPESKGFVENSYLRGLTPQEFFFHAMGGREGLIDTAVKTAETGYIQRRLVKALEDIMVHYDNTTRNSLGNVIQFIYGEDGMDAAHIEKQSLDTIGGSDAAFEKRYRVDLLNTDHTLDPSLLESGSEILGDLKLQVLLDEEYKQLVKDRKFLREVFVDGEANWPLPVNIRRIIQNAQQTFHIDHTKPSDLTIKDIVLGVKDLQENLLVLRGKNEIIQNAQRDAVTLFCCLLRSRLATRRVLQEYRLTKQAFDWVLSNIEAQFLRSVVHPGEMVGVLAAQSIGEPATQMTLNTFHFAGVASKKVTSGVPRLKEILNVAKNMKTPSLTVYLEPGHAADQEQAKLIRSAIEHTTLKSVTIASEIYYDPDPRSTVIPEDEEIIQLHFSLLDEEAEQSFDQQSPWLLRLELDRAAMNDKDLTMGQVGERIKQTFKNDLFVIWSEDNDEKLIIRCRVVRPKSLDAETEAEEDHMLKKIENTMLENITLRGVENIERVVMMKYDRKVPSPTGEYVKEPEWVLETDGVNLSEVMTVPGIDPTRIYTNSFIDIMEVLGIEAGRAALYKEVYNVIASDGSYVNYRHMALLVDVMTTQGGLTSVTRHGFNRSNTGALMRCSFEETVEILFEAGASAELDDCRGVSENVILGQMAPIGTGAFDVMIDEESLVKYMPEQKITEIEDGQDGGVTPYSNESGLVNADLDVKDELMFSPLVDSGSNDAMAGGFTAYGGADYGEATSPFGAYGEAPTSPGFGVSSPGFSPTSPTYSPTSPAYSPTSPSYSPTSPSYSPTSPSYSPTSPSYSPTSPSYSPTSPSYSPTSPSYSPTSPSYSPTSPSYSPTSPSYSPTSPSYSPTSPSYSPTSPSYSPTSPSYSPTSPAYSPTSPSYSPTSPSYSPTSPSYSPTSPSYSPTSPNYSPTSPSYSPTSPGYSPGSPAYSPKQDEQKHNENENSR
With W380A the “effect of a mutation on the interaction” value was “disrupting interaction”.
W357A was tested, and the “effect of a mutation on the interaction” value was “disrupting interaction”.

Variants of: B2
Conditions: with spt5_yeast SPT5, P27692
With W380A the “effect of a mutation on the interaction” value was “disrupting interaction”.
For W357A, the “effect of a mutation on the interaction” value was “disrupting interaction”.

Variants of: B3
Conditions: with rtf1_yeast RTF1, P53064
Chain of rtf1_yeast RTF1, P53064 (P53064 whole entry): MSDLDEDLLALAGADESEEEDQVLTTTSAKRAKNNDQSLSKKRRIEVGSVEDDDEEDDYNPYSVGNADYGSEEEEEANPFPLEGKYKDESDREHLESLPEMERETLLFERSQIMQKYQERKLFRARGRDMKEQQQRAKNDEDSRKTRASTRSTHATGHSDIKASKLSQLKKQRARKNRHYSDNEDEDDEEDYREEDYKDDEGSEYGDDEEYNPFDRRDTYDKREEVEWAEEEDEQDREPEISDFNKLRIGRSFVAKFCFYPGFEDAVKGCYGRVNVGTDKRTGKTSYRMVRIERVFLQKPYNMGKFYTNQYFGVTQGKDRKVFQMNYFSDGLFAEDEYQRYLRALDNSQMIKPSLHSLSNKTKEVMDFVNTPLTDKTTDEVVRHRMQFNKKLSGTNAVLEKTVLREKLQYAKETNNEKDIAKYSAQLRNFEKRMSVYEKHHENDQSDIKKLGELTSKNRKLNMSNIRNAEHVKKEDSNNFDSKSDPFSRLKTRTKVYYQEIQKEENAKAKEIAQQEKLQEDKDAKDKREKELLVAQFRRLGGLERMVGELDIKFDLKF
In the case of M1D, the “effect of a mutation on the interaction” value is reported as “decreasing interaction”.
